Assay results reported in US20230136228A1 (LAMKAP BIO ALPHA, published 2023).

T1: human CEACAM5 (carcinoembryonic antigen, CEA), cell surface (human, UniProt P06731 35-685)
T1 construct: whole, on cells; also called CD66e
T1 sequence (looked up): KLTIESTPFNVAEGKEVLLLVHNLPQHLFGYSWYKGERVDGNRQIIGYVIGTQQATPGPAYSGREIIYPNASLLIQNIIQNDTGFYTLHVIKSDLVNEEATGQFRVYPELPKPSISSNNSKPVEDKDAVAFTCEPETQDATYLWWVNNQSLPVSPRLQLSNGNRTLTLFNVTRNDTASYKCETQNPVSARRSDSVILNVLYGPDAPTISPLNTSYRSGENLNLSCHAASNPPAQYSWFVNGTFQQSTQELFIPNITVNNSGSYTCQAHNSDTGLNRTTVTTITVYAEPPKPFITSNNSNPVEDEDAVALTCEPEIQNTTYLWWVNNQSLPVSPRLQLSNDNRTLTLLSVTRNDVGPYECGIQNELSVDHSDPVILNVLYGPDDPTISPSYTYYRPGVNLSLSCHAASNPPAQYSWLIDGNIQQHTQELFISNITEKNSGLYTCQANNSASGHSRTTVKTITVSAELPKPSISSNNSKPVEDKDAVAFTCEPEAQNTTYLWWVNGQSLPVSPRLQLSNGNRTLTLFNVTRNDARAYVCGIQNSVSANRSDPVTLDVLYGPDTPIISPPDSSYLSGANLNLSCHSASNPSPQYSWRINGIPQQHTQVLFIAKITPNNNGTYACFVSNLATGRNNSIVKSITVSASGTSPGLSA


Tests used:
[1] = molecular target: T2, human CD3ε (human, UniProt P07766 23-207); assay: flow cytometry, HUT-78 cells
T2 construct: whole, on cells; Present on cells as part of the CD3/TCR complex; also called CD3 epsilon

[2] = molecular target: T1, human CEACAM5 (carcinoembryonic …); assay: flow cytometry, MKN-45 and/or HPAF-II cells

T2 sequence (P07766 23-207): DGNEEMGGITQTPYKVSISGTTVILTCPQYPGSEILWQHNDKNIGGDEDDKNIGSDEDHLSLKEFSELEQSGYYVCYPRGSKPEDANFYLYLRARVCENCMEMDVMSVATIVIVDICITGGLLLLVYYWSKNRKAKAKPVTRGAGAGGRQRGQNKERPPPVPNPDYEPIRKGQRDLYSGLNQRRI

Binder | binding result [1] | binding higher than TCB2014 (at 100 nM) [2] [%]
AB13L3-1/N (bispecific antibody, human IgG1, kappa, lambda, L234A L235A, Kappa-lambda body, lead optimization wave 1) heavy: EVQLVESGGGLVQPGGSLKLSCAASGFTFNTYAMNWVRQAPGKGLEWVGRIRSKYNNYATYYADSVKDRFTISRDDSKNTAYLQMNSLKTEDTAVYYCVRHGNFGNSYVSWFAYWGQGTLVTVSSASTKGPSVFPLAPSSKSTSGGTAALGCLVKDYFPEPVTVSWNSGALTSGVHTFPAVLQSSGLYSLSSVVTVPSSSLGTQTYICNVNHKPSNTKVDKRVEPKSCDKTHTCPPCPAPEAAGGPSVFLFPPKPKDTLMISRTPEVTCVVVDVSHEDPEVKFNWYVDGVEVHNAKTKPREEQYNSTYRVVSVLTVLHQDWLNGKEYKCKVSNKALAAPIEKTISKAKGQPREPQVYTLPPSREEMTKNQVSLTCLVKGFYPSDIAVEWESNGQPENNYKTTPPVLDSDGSFFLYSKLTVDKSRWQQGNVFSCSVMHEALHNHYTQKSLSLSPG light 1: EIVLTQSPATLSLSPGERATLSCRASQSVNSNLNWYQQKPGQAPRLLIYHGSNRATGIPARFSGSGSGTDFTLTISSLEPEDFAVYYCQQFDYFMNKNTFGQGTKVEIKRTVAAPSVFIFPPSDEQLKSGTASVVCLLNNFYPREAKVQWKVDNALQSGNSQESVTEQDSKDSTYSLSSTLTLSKADYEKHKVYACEVTHQGLSSPVTKSFNRGEC light 2: QTVVTQEPSLTVSPGGTVTLTCRSSTGAVTTSNYANWFQQKPGQAPRGLIGGTNKRAPGTPARFSGSLLGGKAALTLSGAQPEDEAEYYCALWYKQRWVFGGGTKLTVLGQPKAAPSVTLFPPSSEELQANKATLVCLISDFYPGAVTVAWKADSSPVKAGVETTTPSKQSNNKYAASSYLSLTPEQWKSHRSYSCQVTHEGSTVEKTVAPTECS | binds | ≥ 40
AB20L3-1/N (bispecific antibody, human IgG1, kappa, lambda, L234A L235A, Kappa-lambda body, lead optimization wave 1) heavy: EVQLVESGGGLVQPGGSLKLSCAASGFTFNTYAMNWVRQAPGKGLEWVGRIRSKYNNYATYYADSVKDRFTISRDDSKNTAYLQMNSLKTEDTAVYYCVRHGNFGNSYVSWFAYWGQGTLVTVSSASTKGPSVFPLAPSSKSTSGGTAALGCLVKDYFPEPVTVSWNSGALTSGVHTFPAVLQSSGLYSLSSVVTVPSSSLGTQTYICNVNHKPSNTKVDKRVEPKSCDKTHTCPPCPAPEAAGGPSVFLFPPKPKDTLMISRTPEVTCVVVDVSHEDPEVKFNWYVDGVEVHNAKTKPREEQYNSTYRVVSVLTVLHQDWLNGKEYKCKVSNKALAAPIEKTISKAKGQPREPQVYTLPPSREEMTKNQVSLTCLVKGFYPSDIAVEWESNGQPENNYKTTPPVLDSDGSFFLYSKLTVDKSRWQQGNVFSCSVMHEALHNHYTQKSLSLSPG light 1: EIVLTQSPATLSLSPGERATLSCRASQSVNSNLNWYQQKPGQAPRLLIYHGSNRATGIPARFSGSGSGTDFTLTISSLEPEDFAVYYCQQFDYFRELNTFGQGTKVEIKRTVAAPSVFIFPPSDEQLKSGTASVVCLLNNFYPREAKVQWKVDNALQSGNSQESVTEQDSKDSTYSLSSTLTLSKADYEKHKVYACEVTHQGLSSPVTKSFNRGEC light 2: QTVVTQEPSLTVSPGGTVTLTCRSSTGAVTTSNYANWFQQKPGQAPRGLIGGTNKRAPGTPARFSGSLLGGKAALTLSGAQPEDEAEYYCALWYKQRWVFGGGTKLTVLGQPKAAPSVTLFPPSSEELQANKATLVCLISDFYPGAVTVAWKADSSPVKAGVETTTPSKQSNNKYAASSYLSLTPEQWKSHRSYSCQVTHEGSTVEKTVAPTECS | binds | ≥ 40
